Reference: patent US7230094B2, “Neutral sphingomyelinase antisense ribozyme and uses thereof” (priority 2001, dated 2007)

Tests used:
Format in all cases: cell-based, human
N-SMase [1] = experiment: Immunocytochemical analysis of cells, N-SMase antibody; settings: clone CC compared to untransfected (WT) and sham-transfected (LacZ) lines
Experimental: (§1) Wild-type (WT) MG-63 cells and MG-63 cells transfected with LacZ constructs (L-3) and ribozyme expression constructs for the inhibition of N-SMase expression (CC) were analyzed by immunocytochemistry. The antibodies either recognized epitopes in fibronectin (control) or N-SMase. The analysis was performed in duplicates for the MG-63 cell line and the two mutant colonies.

fibronectin = experiment: Immunocytochemical analysis of cells, fibronectin antibody (specificity control); settings: lines harboring pU1/N-SMase vs pZeoSVLacZ vs untransfected cells
Experimental: as §1

N-SMase [2] = experiment: Neutral sphingomyelinase activity in cell extracts, [14C]sphingomyelin substrate; settings: for Neutral SMase activity: MG-63 WT 2.7, L-3 LacZ/sham 2.1
Experimental: Confluent culture of cells were harvested, washed, and pellets lysed in buffer containing 0.1% Triton™ X-100, 25 mM Tris (pH 7.4) buffer, 5 mM EDTA, 1 mM phenylmethylsulfonylfluoride and 2 μg each of chymostatin, leupeptin, antipain, and pepstatin A. The activity levels of acid and neutral sphingomyelinase were measured in cell extracts (100 μg protein) in duplicate as described previously employing […] as the substrate.
Activities of A-SMase and N-SMase were also measured according to methods described in Chatterjee, S. and Ghosh, N. (1996) Glycobiology 6:303–311, incorporated herein by reference, with minor modifications. In brief, 5×10^6 MG63 cells were scraped from the culture plates, washed with PBS, and disrupted by repeated passage through a 25-gauge needle. Nuclei and cell debris were pelleted at 800×g for 5 min. Supernatant fluid was collected, and the protein concentration was measured using the Bio-Rad (Hercules, Calif.) protein detection kit. To measure SMase activity, 50 μg of protein was incubated for 90 min (the reaction was linear for up to 120 min) at 37° C. in buffer (200 μl final volume) containing 250 mM sodium acetate and 1 mM EDTA, pH 5.0, for A-SMase or 250 mM Tris-Cl, pH 7.4, with or without 6 mM MgCl2 for N-SMase, and 0.75 μl of [methyl-^14C]sphingomyelin (SM) (0.2 mCi/ml; 56.6 mCi/mmol). Radioactive phosphocholine produced from [^14C]SM was extracted with 800 μl of chloroform-methanol (2:1, vol/vol) and 100 μl of H2O. [^14C]phosphocholine in the aqueous phase was measured by scintillation counting.

[3] = tested on: caspase-3 and cytochrome-C release; experiment: Caspase-3 and cytochrome-C release by western analysis and densitometry; settings: N-SMase-deficient cells compared to control (sham-transfected) cells
Experimental: In order to determine a dose-response relationship between the concentration of TNF-α or FasL and apoptosis, western analysis was used to quantitate release of both caspase-3 (FIG. 9) and cytochrome-C (FIG. 10).
Immunoblots for the measurement of cytochrome-C and caspase-3 were carried out after incubation of cells with TNF-α (10 ng/ml) or FasL (1 ng/ml) for 48 hours. Cells were extracted with a buffer (20 mM Hepes pH 7.5, 10 mM KCl, 1.5 mM MgCl2, 5 mM EDTA, 5 mM DTT, 2 mM phenylmethylsulfonylfluoride, 1% NonidetP40, 0.5% sodium deoxycholate, 0.1% SDS, 2 μg/ml leupeptin, 2 μg/ml aprotinin, 0.5 μg/ml benzamindine, and 250 mM sucrose) on ice for 30 minutes. After centrifugation for 10 minutes at 10,000×g, the supernatant was used for western analysis with an antibody for cytochrome-C (Pharmingen, San Diego, Calif.). For assessment of caspase-3, samples were similarly processed in addition to passage through a 21-g needle prior to centrifugation. The western analysis was performed with a rabbit polyclonal IgG antibody to caspase-3 (Santa Cruz, Calif.) raises against an epitope corresponding to amino acids 1–277, representing the full-length precursor form of CPP-32 (caspase-3). For both caspase-3 and cytochrome-C, bands were quantified with densitometric analysis.

N-SMase [4] = experiment: Western immunoblot and densitometric analysis of N-SMase; settings: mutant CC cells vs WT, FIG. 3
Experimental: (§2) FIG. 3 depicts a western immunoblot assay and densitometric analysis of N-SMase. About 10 μg of partially purified N-SMase preparations from WT (MG-63) and mutant (CC) cells were solubilized and subjected to 7.5% polyacrylamide SDS gel electrophoresis. The proteins were then transferred to PVDF membranes and subjected to a western immunoblot assay employing an N-SMase antibody or β-actin antibody (control). The immunoreactive protein bands were then subjected to densitometric scanning.
as §2, with “Western” for “FIG. 3 depicts a western”, “analysis was used to quantify the level” for “analysis”, “N-SMase in WT and CC cells.” for “N-SMase.”, “antibody.” for “antibody or β-actin antibody (control).”

[5] = tested on: ceramide production by N-SMase; experiment: Ceramide level, modified diacylglycerol kinase assay; settings: for Production of ceramide in response to cytokine stimulation: ribozyme-transfected (N-SMase-deficient) cells compared to sham transfected cells, TNF-α 20 ng/ml or Fas-L 1 ng/ml, 24 hours
N-SMase mRNA = N-SMase mRNA by Northern analysis and RT-PCR in transfected MG63 clones
Experimental: RNA was originally extracted from a single confluent (90%) T-75 flask using Trizol. […] Next, poly-A^+ RNA was extracted from 3 confluent T-75 flasks, loading 3.5 μg/lane. Northern gels were standard, using 1.2% agarose, 1×MOPS, and 6.5% formaldehyde. RNA was transferred to nylon membranes with a standard wick system. The cDNA probe was derived from the cDNA construct, pHH11. An EcoR-1/SpeI fragment, containing a three hundred base pair probe was prepared. This was radiolabeled with [^32P]-dCTP and the random primer labeling system.
Clone CC had no detectable N-SMase mRNA by Northern analysis, so RT-PCR was performed to quantitate the reduction. Compared to a control-transfected clone (WT), there was a 50% reduction in mRNA in clone CC (ribozyme). This was confirmed by western blot analysis of the transfected and control clones for N-SMase.

B1: N-SMase ribozyme: U1 snRNA-derived hammerhead antisense ribozyme targeting N-SMase mRNA, expressed from vector pNSMRz; stably transfected MG63 clones CC and C-B (nucleic acid, listed as Homo sapiens)
chain: AUACUUACCUGGCAGGGGAGAUACCAUGAUCACGAAGGUGGUUUUCCCAGGGCGAGGCUUAUCCAUUGGCCUCCGGAUGUGCUGACCCCUGCGAUUUCCCCAAAUGUGGGAAACUCGACUGCAGAAUAUGUCAUCAUAUUGCCUGAUGAGUCCGUGAGGACGAAACCUCUUCACAUGAAAAAGUGGGGCUGCGUUCGCGCUUCCCCG
- Immunohistochemical staining for N-SMase (N-SMase [1]): near absence
- Immunohistochemical staining with monoclonal antibody to fibronectin (fibronectin): No differences were observed
- Neutral SMase activity (N-SMase [2]; MG-63 clone C-B (ribozyme-transfected mutant), average of two batches): 1.0 nmol/mg protein/hr
- Neutral SMase activity (N-SMase [2]; MG-63 clone CC (ribozyme-transfected mutant), average of two batches of cell pellets): 0.67 nmol/mg protein/hr
- Reduction in N-SMase activity (N-SMase [2]; ribozyme-transfected cells compared to sham-transfected and untransfected controls): three-fold reduction
- Dose-response of caspase-3 and cytochrome-C release to TNF-α and FasL [3]: marked blunting of the response
- Level of N-SMase by western immunoblot densitometry (N-SMase [4]): greatly reduced
- Production of ceramide in response to cytokine stimulation ([5]; listed as antisense ribozyme): substantially no change
- Production of ceramide in response to cytokine stimulation ([5]; listed as ribozyme): severely reduced
- Basal level of ceramide production ([5]; ribozyme-transfected CC cells, 2.63 in MG-63 control cells): 4.59 pmole/mg protein
- N-SMase mRNA by Northern analysis (N-SMase mRNA; clone CC): no detectable
- Reduction in N-SMase mRNA by RT-PCR (N-SMase mRNA; clone CC compared to a control-transfected clone (WT)): 50%
